The numbers were not newly measured in paper PMC3214078, which cites them from elsewhere.

Data set [1] has as its target Histone H3 peptide N-terminal tail (Homo sapiens) (UniProt P68431). As to the kind of experiment: tryptophan fluorescence.
For data set [2] the target is unchanged. As to the kind of experiment: ITC.

Sequence of UHRF1 PHD (Q96T88 307-369): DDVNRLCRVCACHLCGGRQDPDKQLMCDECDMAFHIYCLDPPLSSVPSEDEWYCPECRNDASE

Consider UHRF1 PHD (from UniProt Q96T88), for which the values for the Kd in data set [1] and in data set [2] were 3.8 µM and 930 nM, respectively.
